Test results taken from patent publication US20030215913A1 (published 2003).

T1: LP226 (human, UniProt Q6WN34 26-429, limits assumed)
T1 construct: Secreted chordin-like protein; the cleavage site was not determined by experiment; also called LP226 polypeptide; LP polypeptide
T1 sequence: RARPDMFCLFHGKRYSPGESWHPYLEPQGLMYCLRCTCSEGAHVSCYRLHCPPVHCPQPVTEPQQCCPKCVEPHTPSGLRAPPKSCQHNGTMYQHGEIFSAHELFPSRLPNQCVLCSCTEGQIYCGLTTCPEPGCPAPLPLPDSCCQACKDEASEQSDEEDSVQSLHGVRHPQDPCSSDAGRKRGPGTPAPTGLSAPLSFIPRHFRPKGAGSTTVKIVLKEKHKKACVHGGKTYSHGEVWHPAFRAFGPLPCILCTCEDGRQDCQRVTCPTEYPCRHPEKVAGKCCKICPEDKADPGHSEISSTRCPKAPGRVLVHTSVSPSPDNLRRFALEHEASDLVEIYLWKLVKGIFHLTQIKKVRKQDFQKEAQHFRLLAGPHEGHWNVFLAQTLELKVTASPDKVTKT


Target: T1, LP226
Assay: BIAcore 2000 SPR, LP226 amine-coupled to CM5 chip, ligand injected
Description: A BIAcore 2000 instrument is used to detect real-time binding between immobilized LP226 and various TGF-beta and BMP proteins. LP226 is diluted to a concentration of […] in 10 mM sodium acetate buffer at pH 5.0. LP226 is immobilized to a CM5 sensor chip using the amine coupling method. Follistatin, containing BSA, is immobilized as a positive control.
TGF-beta and BMP proteins are diluted in HBS-EP buffer. Samples are injected over LP226 and control surfaces using the kinject method. Samples containing 5 µg/mL and 1 μg/mL of protein are injected at 30 μL/min for three minutes with a ninety second dissociation time. LP226 and control surfaces are then regenerated with glycine-hydrochloride at pH 3.0.

binding result	Binder
no binding	fas-ligand (ligand, UniProt P48023 134-281, looked up, Negative control injected over the LP226 surface; also called negative control) PSPPPEKKELRKVAHLTGKSNSRSMPLEWEDTYGIVLLSGVKYKKGGLVINETGLYFVYSKVYFRGQSCNNLPLSHKVYMRNSKYPQDLVMMEGKMMSYCTTGQMWARSSYLGAVFNLTSADHLYVNVSELSLVNFEESQTFFGLYKL
no binding (tested: 5 g/mL and 1 µg/mL)	BMP-5 (ligand, UniProt P22003 317-454, looked up) AANKRKNQNRNKSSSHQDSSRMSSVGDYNTSEQKQACKKHELYVSFRDLGWQDWIIAPEGYAAFYCDGECSFPLNAHMNATNHAIVQTLVHLMFPDHVPKPCCAPTKLNAISVLYFDDSSNVILKKYRNMVVRSCGCH
no binding (tested: 5 g/mL and 1 µg/mL)	BMP-6 (ligand, UniProt P22004 382-513, looked up) QQSRNRSTQSQDVARVSSASDYNSSELKTACRKHELYVSFQDLGWQDWIIAPKGYAANYCDGECSFPLNAHMNATNHAIVQTLVHLMNPEYVPKPCCAPTKLNAISVLYFDDNSNVILKKYRNMVVRACGCH
